Data as given in article PMC4268010 (Molecular cell, 2014).
Several values for one entry are separate records, joined by “and”; a condition that tells them apart may be missing. Identical values can stand only once.

T1: MBP-tagged Smc5 (WT) (UniProt Q08204 1-1093)
T1 sequence (looked up): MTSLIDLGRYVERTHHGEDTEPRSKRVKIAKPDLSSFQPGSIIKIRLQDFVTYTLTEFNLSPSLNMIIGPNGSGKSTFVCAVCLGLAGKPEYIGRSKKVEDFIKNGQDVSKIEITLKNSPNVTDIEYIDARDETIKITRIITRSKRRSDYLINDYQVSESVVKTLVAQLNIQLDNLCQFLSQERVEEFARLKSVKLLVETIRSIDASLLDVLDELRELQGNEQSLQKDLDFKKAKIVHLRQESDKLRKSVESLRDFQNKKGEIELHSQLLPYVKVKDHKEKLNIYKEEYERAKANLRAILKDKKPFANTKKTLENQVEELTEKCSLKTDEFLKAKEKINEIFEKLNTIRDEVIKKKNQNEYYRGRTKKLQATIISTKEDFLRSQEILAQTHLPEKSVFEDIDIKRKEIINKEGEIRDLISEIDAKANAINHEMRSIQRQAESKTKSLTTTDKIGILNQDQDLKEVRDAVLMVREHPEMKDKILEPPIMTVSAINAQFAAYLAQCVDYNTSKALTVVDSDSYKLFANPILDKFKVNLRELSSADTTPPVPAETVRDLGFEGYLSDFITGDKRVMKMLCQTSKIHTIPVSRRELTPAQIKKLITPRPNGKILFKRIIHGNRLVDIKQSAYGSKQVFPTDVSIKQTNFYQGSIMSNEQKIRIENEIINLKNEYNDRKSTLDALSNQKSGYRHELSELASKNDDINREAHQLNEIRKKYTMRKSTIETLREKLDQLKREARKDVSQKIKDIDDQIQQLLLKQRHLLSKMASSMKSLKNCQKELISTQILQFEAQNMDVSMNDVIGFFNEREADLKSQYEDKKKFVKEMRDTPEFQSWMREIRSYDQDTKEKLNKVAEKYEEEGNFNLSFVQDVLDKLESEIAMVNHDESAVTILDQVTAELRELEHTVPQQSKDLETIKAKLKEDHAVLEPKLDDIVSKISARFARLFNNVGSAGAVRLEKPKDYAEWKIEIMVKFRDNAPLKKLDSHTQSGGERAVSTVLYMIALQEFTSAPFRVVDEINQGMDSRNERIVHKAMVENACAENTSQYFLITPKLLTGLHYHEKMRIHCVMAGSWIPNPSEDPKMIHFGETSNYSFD

T2: His6-Flag-tagged Mph1 (budding yeast), P40562
T2 chain: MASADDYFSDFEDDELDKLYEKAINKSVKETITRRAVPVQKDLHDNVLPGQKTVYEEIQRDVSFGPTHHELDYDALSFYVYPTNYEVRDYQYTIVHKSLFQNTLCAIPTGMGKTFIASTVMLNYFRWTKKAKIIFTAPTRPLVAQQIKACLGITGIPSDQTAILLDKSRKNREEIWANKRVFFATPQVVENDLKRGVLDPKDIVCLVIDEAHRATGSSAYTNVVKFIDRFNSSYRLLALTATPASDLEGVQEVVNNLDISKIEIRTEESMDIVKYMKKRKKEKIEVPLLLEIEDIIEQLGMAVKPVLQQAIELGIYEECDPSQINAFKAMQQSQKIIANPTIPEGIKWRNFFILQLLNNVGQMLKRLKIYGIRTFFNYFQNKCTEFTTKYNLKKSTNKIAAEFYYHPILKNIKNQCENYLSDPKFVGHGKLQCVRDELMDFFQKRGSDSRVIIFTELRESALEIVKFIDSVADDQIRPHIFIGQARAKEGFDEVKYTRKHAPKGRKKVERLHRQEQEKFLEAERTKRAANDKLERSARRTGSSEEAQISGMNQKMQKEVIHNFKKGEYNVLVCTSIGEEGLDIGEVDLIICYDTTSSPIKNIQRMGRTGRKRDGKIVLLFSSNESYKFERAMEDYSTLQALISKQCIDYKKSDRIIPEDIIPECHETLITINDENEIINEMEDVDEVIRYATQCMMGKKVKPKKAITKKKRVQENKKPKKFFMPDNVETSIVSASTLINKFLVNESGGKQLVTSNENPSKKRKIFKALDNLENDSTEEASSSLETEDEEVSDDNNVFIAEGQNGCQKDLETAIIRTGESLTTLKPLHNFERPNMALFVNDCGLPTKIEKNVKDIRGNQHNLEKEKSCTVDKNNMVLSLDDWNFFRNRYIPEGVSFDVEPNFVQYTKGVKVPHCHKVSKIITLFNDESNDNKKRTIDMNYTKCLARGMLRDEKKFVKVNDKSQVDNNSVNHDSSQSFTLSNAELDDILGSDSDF

T3: Strep-tagged Smc5 (UniProt Q08204 1-1093)
T3 sequence (looked up): T1 sequence (looked up)

B1: His6-Flag-tagged Mph1 (enzyme, budding yeast, UniProt P40562 1-993, looked up)
chain: T2 chain
B2: MBP-tagged smc5-ΔNC (residues 149-944) (domain or fragment, UniProt Q08204 149-944, looked up)
chain: DYLINDYQVSESVVKTLVAQLNIQLDNLCQFLSQERVEEFARLKSVKLLVETIRSIDASLLDVLDELRELQGNEQSLQKDLDFKKAKIVHLRQESDKLRKSVESLRDFQNKKGEIELHSQLLPYVKVKDHKEKLNIYKEEYERAKANLRAILKDKKPFANTKKTLENQVEELTEKCSLKTDEFLKAKEKINEIFEKLNTIRDEVIKKKNQNEYYRGRTKKLQATIISTKEDFLRSQEILAQTHLPEKSVFEDIDIKRKEIINKEGEIRDLISEIDAKANAINHEMRSIQRQAESKTKSLTTTDKIGILNQDQDLKEVRDAVLMVREHPEMKDKILEPPIMTVSAINAQFAAYLAQCVDYNTSKALTVVDSDSYKLFANPILDKFKVNLRELSSADTTPPVPAETVRDLGFEGYLSDFITGDKRVMKMLCQTSKIHTIPVSRRELTPAQIKKLITPRPNGKILFKRIIHGNRLVDIKQSAYGSKQVFPTDVSIKQTNFYQGSIMSNEQKIRIENEIINLKNEYNDRKSTLDALSNQKSGYRHELSELASKNDDINREAHQLNEIRKKYTMRKSTIETLREKLDQLKREARKDVSQKIKDIDDQIQQLLLKQRHLLSKMASSMKSLKNCQKELISTQILQFEAQNMDVSMNDVIGFFNEREADLKSQYEDKKKFVKEMRDTPEFQSWMREIRSYDQDTKEKLNKVAEKYEEEGNFNLSFVQDVLDKLESEIAMVNHDESAVTILDQVTAELRELEHTVPQQSKDLETIKAKLKEDHAVLEPKLDDIVSKISARFARLF

How the values were obtained:
MBP-tagged Smc5 (WT) = molecular target: T1, MBP-tagged Smc5 (WT); test: pull-down
[1] = molecular target: T2, His6-Flag-tagged Mph1 (budding yeast), …; test: atomic force microscopy, volume analysis; conditions: remark: other sources report otherwise
[2] = molecular target: T2, His6-Flag-tagged Mph1 (budding yeast), …; test: atomic force microscopy, volume analysis; conditions: remark: other sources report otherwise
Strep-tagged Smc5 = molecular target: T3, Strep-tagged Smc5; test: pull-down
[3] = molecular target: Myc-Smc5-Strep-Smc6 complex (UniProt Q08204 1-1093; Q12749 1-1114); test: pull-down
Chain of Myc-Smc5-Strep-Smc6 complex (Q12749 whole entry, one chain of several): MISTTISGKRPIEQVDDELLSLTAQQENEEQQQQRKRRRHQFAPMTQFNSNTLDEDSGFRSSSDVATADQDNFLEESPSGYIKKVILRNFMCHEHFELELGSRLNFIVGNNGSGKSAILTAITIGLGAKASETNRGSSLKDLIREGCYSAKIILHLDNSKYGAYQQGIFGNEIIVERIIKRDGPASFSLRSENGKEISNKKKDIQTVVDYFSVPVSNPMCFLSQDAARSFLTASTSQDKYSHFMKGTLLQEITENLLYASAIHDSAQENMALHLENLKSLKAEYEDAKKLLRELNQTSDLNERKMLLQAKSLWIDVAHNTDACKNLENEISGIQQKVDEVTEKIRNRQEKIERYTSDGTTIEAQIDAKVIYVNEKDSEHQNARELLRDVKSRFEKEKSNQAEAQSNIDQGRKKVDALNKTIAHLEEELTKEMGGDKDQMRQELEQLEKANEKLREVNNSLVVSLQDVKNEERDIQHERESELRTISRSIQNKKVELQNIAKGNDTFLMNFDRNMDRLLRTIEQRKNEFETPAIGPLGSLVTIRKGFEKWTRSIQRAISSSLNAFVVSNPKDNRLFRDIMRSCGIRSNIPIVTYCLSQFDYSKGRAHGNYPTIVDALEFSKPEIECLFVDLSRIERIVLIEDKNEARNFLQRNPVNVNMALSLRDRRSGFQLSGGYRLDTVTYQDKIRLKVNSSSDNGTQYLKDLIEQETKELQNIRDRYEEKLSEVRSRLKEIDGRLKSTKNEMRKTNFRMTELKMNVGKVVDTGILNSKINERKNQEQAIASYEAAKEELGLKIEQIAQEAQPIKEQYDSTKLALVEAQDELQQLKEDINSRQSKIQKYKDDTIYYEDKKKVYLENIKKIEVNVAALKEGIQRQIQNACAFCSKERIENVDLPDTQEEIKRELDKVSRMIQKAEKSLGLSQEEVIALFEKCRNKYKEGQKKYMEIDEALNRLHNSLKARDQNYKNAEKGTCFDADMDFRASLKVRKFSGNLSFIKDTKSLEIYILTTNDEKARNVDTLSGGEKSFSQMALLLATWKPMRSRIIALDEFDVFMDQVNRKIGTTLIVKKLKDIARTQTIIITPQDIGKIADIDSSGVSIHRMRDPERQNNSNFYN

His6-Flag-tagged Mph1 = molecular target: B1; test: pull-down

Binder | binding result (MBP-tagged Smc5 (WT)) | stoichiometry N (Mph1 monomer equivalents) [1] | stoichiometry N (Mph1 monomer equivalents) [2] | binding result (Strep-tagged Smc5) | binding result [3] | binding result (His6-Flag-tagged Mph1)
B1 | binds | 1.4 | 7.3 and 12 and 17.4 | binds | binds | 
B2 |  |  |  |  |  | binds
